Source: patent US9202600B2, “Method for production of radioisotope preparations and their use in life science, research, medical application and industry” (priority 2005, dated 2015)
“Also recorded” adds a separate entry of the source.

What was measured:
[1] = Daughter nuclide ingrowth and shelf-life of the 149Tb-labeled bioconjugate; format: physicochemical; settings: for increase of the long-lived daughter content, factor: fixed dose applied 4 hours after the final purification of the isotope (EOS)
Method: Spallation reaction in combination with on line mass separator technology was used for the production of ^149Tb for this study. The radiochemical separation and purification of the […] was relatively easy to perform in about 30 minutes in this specific case, since the inventors started from non-carrier added preparations. The final ^149Tb preparation was obtained in very high purity and in a small volume, the labeling of the bioconjugate was fast (10 minutes) and almost quantitative. The administration of the preparation should be carried out as rapidly as possible after purification of the ^149Tb, since levels of contamination with daughter nuclides will increase with time. For example, application of a fixed dose of the ^149Tb-labeled bioconjugate 4 hours after the final purification of the isotope itself (EOS) leads to an increase of the long-lived daughter content by a factor of 2. According to the preliminary dose estimation one could define a shelf-life for the labelled ^149Tb-labeled bioconjugate of about 4-6 hours. For a longer delay it would be advisable to repurify the ^149Tb from the accumulated daughter products, a process that could be expected to require 30 minutes.

Daudi cells = test: Survival of SCID mice i.v. xenografted with Daudi cells (leukemia model) after immunotherapy or radioimmunotherapy; format: in vivo; settings: for protection / disease status over 120 days observation: 5.5 MBq 149Tb-labeled Rituximab (5 μg), single i.v. injection
Method: Daudi cells (ATCC Nr. CCL-213) were used to simulate a leukemia model in mice. The cells were cultured in RPMI 1640 medium supplemented with 10% heat-inactivated fetal calf serum and 0.5% penicillin (10000 U/ml)/streptomycin (10 mg/ml) (Sigma-Aldrich). The cell suspension to be injected into mice was prepared by centrifuging the culture for 3 min at 1200 rpm, washing with PBS and re-suspending in PBS at 2.5-10^7 cells per ml.
(§1) The in vivo studies were performed using 26 female SCID mice (C.B.-17/ICR, Iffa Credo) under the authorization Nr: GE 31.1.1049/1879/11. The mice, which were 8 weeks old at the start of the experiment and weighed 20 g on average, were kept in sterile, ventilated boxes. […] Each mouse received 5-10^6 Daudi cells by injection of 0.2 ml cell suspension in PBS into the tail vein. […] According to the authorized protocol the mice were surveyed for 120 days: their behavior was logged each day, their condition was supervised once a week by a veterinarian, and they were weighed three times a week. At the appearance of obvious signs of paralysis, visible tumor masses, or a weight loss of >15%, the mice were sacrificed. One mouse was sacrificed shortly after injection (2 h p.i.) and kept deep-frozen for later analysis, in order to act as a reference for later quantification of the daughter radioactivity distribution.
The survival of animals until sacrifice because of disease development or the end of the experiment (no disease development) was compared between the different groups according a Kaplan Meier analysis using the Lee-Desu evaluation of the Unistat 3.0 statistical package (Megalon, Novato Calif., USA).

[2] = Biodistribution of 149Tb-labeled Rituximab and retention of long-lived daughter radioactivity (gamma spectroscopy of organs); format: in vivo, SCID mice; settings: for Biodistribution, Liver: SCID mouse, 2 h p.i. (i.v.)
Method: as §1
Organ samples were taken from the sacrificed mice and the radioactivity concentration of the long-lived daughter products was determined by using high-resolution gamma spectroscopy (18% HP—Ge detector in combination with the Gamma spectrometer Genie 2000, Canberra). Whole, intact mice, as well as isolated organ samples were measured. Since the radioactivity content of the samples was essentially very low, long measuring times (between 1 and 24 hours) were applied.

CD20 = target: T1, CD20 (Homo sapiens, UniProt P11836); test: Cell binding of the labeled antibody; format: cell-based; settings: without extrapolation to infinite antigen excess
T1 construct: endogenous in cells
T1 sequence (P11836 1-297): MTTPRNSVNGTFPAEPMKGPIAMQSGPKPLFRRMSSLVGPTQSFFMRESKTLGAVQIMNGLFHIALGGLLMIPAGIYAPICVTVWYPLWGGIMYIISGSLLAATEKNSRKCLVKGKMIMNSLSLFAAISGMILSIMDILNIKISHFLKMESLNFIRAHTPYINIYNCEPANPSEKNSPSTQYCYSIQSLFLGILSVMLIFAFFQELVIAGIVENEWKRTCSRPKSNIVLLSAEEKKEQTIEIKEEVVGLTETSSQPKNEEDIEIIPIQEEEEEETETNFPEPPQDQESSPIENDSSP
Method: 25-40 μl of the ^149Tb solution characterized above was used immediately for the labeling procedure. The pH was adjusted to 5.5 by adding 60 μl of 3 M CH3COONH4 solution, followed by the addition of 10 μl (40 mg/ml) ascorbic acid. After adding 5 μl of a stock solution of the chelated antibody in PBS (10 mg/ml) the mixture was incubated for 10 min at room temperature, before dilution to a final volume of 1.0 ml in PBS-1% human serum. […] The injection of the radioimmuno-conjugate into the mice was performed 1 h after EOS. The in vitro behavior of the labeled bioconjugate (immunoreactivity, cell binding, cell killing efficiency) has been described in a previous paper [Vranjes S D, Miederer M, Comor J J, Soloviev D, Beyer G-J and the ISOLDE collaboartion. Labeling of monoclonal antibodies with 149-Th for targeted alpha therapy. J Lab Comp Radiopharm 2001; 44:718-720]. With the same antibody the inventors observed up to 55% cell binding without extrapolation to infinite antigen excess.

[3] = listed as 149Tb-CHX-A-DTPA-Rituximab
[4] = Group 3, 5 μg 149Tb-labeled Rituximab (5.55 MBq) i.v. 2 days after Daudi cell inoculation
[5] = 2 h p.i., listed as 149Tb-CHX-A-DTPA-Rituximab

^149Tb-labeled Rituximab
shelf-life ([1]; defined according to the preliminary dose estimation): 4 to 6 h | increase of the long-lived daughter content, factor ([1]; listed as 149Tb labeled bioconjugate): increase the activity of the daughter product be by a factor 2. In this way | increase of the long-lived daughter content, factor ([1]; listed as 149Tb-labeled bioconjugate): 2 | time after which the only mouse of the group was lost (abdominal tumor growth) (Daudi cells; 5.5 MBq 149Tb-labeled Rituximab (5 μg Rituximab per animal)): 48 days | protection / disease status over 120 days observation (Daudi cells): almost complete protection; also recorded: long-term survival without evidence of any disease at 120 days | protection / disease status over 120 days observation (Daudi cells; [3]): without any visible signs of a disease | protection / disease status over 120 days observation (Daudi cells; listed as 149Tb-CHX-DTPA-Rituximab): almost completely protected | Follow-up (120 days after the therapy): no pathologic changes (Daudi cells; [4]): 89% no | Follow-up (120 days after the therapy): paralyzed, abdominal tumor (Daudi cells; [4]): 11% paralyzed, | tumor free survival for >120 days, share of treated animals (Daudi cells; SCID mice, single i.v. 5.5 MBq labeled conjugate (5 μg Rituximab) 2 days after i.v. graft of 5·10^6 Daudi cells): 89% | signs of toxicity over four months (Daudi cells; xenografted SCID mice treated with 149Tb-labeled Rituximab): without detectable signs of toxicity | Biodistribution, Body total ([2]; 2 h p.i.): 100 % i.d./Organ | Biodistribution, Bone ([2]; 2 h p.i.): 9.1 ± 0.7 %/g tissue | Biodistribution, Muscles ([2]; 2 h p.i.): <0.2 %/g tissue | Biodistribution, Bone ([2]; 2 h p.i., bone total calculated as 9 × both femur activity): 13 ± 1 % i.d./Organ | Biodistribution, Kidney ([2]; 2 h p.i., both kidneys measured together, listed as 149Tb-CHX-A-DTPA-Rituximab): 24 %/g tissue | Biodistribution, Heart [2, 5]: 41 %/g tissue | Biodistribution, Spleen [2, 5]: 42 %/g tissue | share of the retained daughter activity located in bone tissue ([2]; 120 days after injection): 91.1% | Remaining daughter radioactivity, Blood ([2]; 120 d p.i.): <0.01 % i.d./Organ | Remaining daughter radioactivity, Body total (retention of the long-lived daughter products) ([2]; 120 d p.i.): 28.4 ± 4 % i.d./Organ | Remaining daughter radioactivity, Bone ([2]; 120 d p.i.): 13 ± 2 %/g tissue | Remaining daughter radioactivity, Heart ([2]; 120 d p.i.): <0.01 % i.d./Organ | Remaining daughter radioactivity, Lung ([2]; 120 d p.i.): <0.01 % i.d./Organ | Remaining daughter radioactivity, Muscles ([2]; 120 d p.i.): <0.02 % i.d./Organ | Remaining daughter radioactivity, Bladder ([2]; 120 d p.i., bladder measured with urine): <0.01 % i.d./Organ | Remaining daughter radioactivity, Bone ([2]; 120 d p.i., bone total calculated as 9 × both femur activity): 26 ± 4 % i.d./Organ | Remaining daughter radioactivity, Body total (retention of the long-lived daughter products) ([2]; 120 d p.i., listed as 149Tb-CHX-A-DTPA-Rituximab): 28.4±4 % i.d./Organ | Remaining daughter radioactivity, Body total (retention of the long-lived daughter products) ([2]; 120 d p.i., listed as labeled antibody conjugate): 28.4±4 % i.d./Organ | Biodistribution, Liver [2]: 18 ± 3 % i.d./Organ | Biodistribution, Liver [2, 3]: 18±3 % i.d./Organ | primary injected radioactive atoms excreted from the mice ([2]; after 120 days): 71.6% | cell binding (CD20): up to 55%
